From patent publication US8846003
No end group written: not given here.

Biological target: collagen
Experiment: SPR, Biacore 2000; 1500 RU collagen amine-coupled to CM-3 chip, SILY injected at 100 µM to 1.5 µM; from on-off binding kinetics

For RRANAALKAGELYKSILYGC-NH2 [peptide …], the Kd was 1200 nM.
